{
  "source": "patent US20150125491A1",
  "about": "(AURIGENE DISCOVERY TECHNOLOGIES, published 2015)",
  "molecules": {"B1": {"name": "Compound 15 (peptide)", "peptide": "cyclo(SNTSESF[Ahx]Q)", "SMILES": "C[C@@H](O)[C@@H]1NC(=O)[C@H](CC(N)=O)NC(=O)[C@H](CO)NC(=O)[C@H](CCC(N)=O)NC(=O)CCCCCNC(=O)[C@H](Cc2ccccc2)NC(=O)[C@H](CO)NC(=O)[C@H](CCC(=O)O)NC(=O)[C@H](CO)NC1=O"}, "B2": {"name": "Compound 14 (peptide)", "peptide": "SNTSESFQ", "modifications": "cyclised between the N-terminal amino group of Ser and the alpha-carboxyl of the C-terminal Glu, which was attached to Rink amide resin through its gamma-carboxyl (gives Gln)"}, "B3": {"name": "Compound 2 (peptide)", "peptide": "SETSKSF-NH2", "modifications": "lactam 2-5; N-terminus assumed", "SMILES": "C[C@@H](O)[C@@H]1NC(=O)[C@@H](NC(=O)[C@@H](N)CO)CCC(=O)NCCCC[C@@H](C(=O)N[C@@H](CO)C(=O)N[C@@H](Cc2ccccc2)C(N)=O)NC(=O)[C@H](CO)NC1=O"}},
  "note": "Bridges are numbered along the chain shown (N, C = ends). Where no end group is shown, it is not given here. [ ]: non-standard residue; d: D form. Ahx = NCCCCCC(=O)O",
  "data": [
    {"target": "PD-1 on mouse splenocytes (mouse) (UniProt Q02242)", "sequence (Q02242 25-288)": "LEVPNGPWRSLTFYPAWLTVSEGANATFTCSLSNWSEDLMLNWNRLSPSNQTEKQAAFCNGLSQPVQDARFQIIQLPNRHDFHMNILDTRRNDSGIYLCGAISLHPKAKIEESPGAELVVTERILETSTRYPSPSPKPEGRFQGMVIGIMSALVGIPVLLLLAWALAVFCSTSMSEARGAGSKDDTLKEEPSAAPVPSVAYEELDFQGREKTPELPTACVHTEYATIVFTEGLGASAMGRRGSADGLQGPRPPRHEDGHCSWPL", "assay": "cell-based or functional assay", "units": {"% Splenocyte proliferation (Background proliferation: Splenocytes+anti-CD3/CD28+PDL or Tumor)": "%"}, "values": [
      {"molecule": "PD-L1 expressed on MDA-MB-231 cells (from UniProt Q9NZQ7 19-290) (ligand)", "% Splenocyte proliferation (Background proliferation: Splenocytes+anti-CD3/CD28+PDL or Tumor)": 13}
    ]},
    {"target": "PD-L1 expressed on MDA-MB-231 cells (UniProt Q9NZQ7 19-290, limits assumed)", "sequence (Q9NZQ7 19-290 limits assumed)": "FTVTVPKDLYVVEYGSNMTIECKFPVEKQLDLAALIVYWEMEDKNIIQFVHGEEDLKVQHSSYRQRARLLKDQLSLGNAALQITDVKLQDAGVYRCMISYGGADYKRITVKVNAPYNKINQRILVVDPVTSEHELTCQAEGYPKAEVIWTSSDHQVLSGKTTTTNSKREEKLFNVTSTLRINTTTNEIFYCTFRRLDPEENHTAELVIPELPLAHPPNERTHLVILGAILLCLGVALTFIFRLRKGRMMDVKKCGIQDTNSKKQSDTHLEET", "assay": "cell-based or functional assay", "units": {"% Splenocyte proliferation": "%", "Fold induction": "fold"}, "values": [
      {"molecule": "IEMSKSQ (not fully specified; also: cyclic, bridge and C-terminus not given here)", "note": "[Compound 11]", "% Splenocyte proliferation": 54, "Fold induction": 4.2},
      {"molecule": "cyclo([Ahx]SETSKSFQ)", "note": "[Compound 17]", "% Splenocyte proliferation": 42, "Fold induction": 3.2},
      {"molecule": "IETSKSF (not fully specified; also: cyclic, bridge and C-terminus not given here)", "note": "[Compound 6]", "% Splenocyte proliferation": 55, "Fold induction": 4.2},
      {"molecule": "B1", "% Splenocyte proliferation": 53, "Fold induction": 4},
      {"molecule": "IEMSKVQ-OH (lactam 2-5)", "note": "[Compound 12]", "% Splenocyte proliferation": 39, "Fold induction": 3},
      {"molecule": "SKTSESF-NH2 (lactam 2-5)", "note": "[Compound 1]", "% Splenocyte proliferation": 60, "Fold induction": 4.6},
      {"molecule": "EETSKSF (not fully specified; also: cyclic, bridge and C-terminus not given here)", "note": "[Compound 4]", "% Splenocyte proliferation": 36, "Fold induction": 2.8},
      {"molecule": "SETSKSFE (not fully specified; also: cyclic, bridge and C-terminus not given here)", "note": "[Compound 20]", "% Splenocyte proliferation": 36, "Fold induction": 2.8},
      {"molecule": "B2", "% Splenocyte proliferation": 55, "Fold induction": 4.2},
      {"molecule": "SETSKSI (not fully specified; also: cyclic, bridge and C-terminus not given here)", "note": "[Compound 5]", "% Splenocyte proliferation": 42, "Fold induction": 3.2},
      {"molecule": "B3", "% Splenocyte proliferation": 57, "Fold induction": 4.3},
      {"molecule": "SETSKVF (not fully specified; also: cyclic, bridge and C-terminus not given here)", "note": "[Compound 7]", "% Splenocyte proliferation": 52, "Fold induction": 4},
      {"molecule": "SETSKSFQ (not fully specified; also: cyclic, bridge and C-terminus not given here)", "note": "[Compound 16]", "% Splenocyte proliferation": 36, "Fold induction": 2.8}
    ]}
  ]
}
